Patent US20190256584A1 (University of California, published 2019)

T1: Botulinum neurotoxin serotype C (BoNT/C) (Clostridium botulinum, UniProt P18640 2-1291)
T1 sequence: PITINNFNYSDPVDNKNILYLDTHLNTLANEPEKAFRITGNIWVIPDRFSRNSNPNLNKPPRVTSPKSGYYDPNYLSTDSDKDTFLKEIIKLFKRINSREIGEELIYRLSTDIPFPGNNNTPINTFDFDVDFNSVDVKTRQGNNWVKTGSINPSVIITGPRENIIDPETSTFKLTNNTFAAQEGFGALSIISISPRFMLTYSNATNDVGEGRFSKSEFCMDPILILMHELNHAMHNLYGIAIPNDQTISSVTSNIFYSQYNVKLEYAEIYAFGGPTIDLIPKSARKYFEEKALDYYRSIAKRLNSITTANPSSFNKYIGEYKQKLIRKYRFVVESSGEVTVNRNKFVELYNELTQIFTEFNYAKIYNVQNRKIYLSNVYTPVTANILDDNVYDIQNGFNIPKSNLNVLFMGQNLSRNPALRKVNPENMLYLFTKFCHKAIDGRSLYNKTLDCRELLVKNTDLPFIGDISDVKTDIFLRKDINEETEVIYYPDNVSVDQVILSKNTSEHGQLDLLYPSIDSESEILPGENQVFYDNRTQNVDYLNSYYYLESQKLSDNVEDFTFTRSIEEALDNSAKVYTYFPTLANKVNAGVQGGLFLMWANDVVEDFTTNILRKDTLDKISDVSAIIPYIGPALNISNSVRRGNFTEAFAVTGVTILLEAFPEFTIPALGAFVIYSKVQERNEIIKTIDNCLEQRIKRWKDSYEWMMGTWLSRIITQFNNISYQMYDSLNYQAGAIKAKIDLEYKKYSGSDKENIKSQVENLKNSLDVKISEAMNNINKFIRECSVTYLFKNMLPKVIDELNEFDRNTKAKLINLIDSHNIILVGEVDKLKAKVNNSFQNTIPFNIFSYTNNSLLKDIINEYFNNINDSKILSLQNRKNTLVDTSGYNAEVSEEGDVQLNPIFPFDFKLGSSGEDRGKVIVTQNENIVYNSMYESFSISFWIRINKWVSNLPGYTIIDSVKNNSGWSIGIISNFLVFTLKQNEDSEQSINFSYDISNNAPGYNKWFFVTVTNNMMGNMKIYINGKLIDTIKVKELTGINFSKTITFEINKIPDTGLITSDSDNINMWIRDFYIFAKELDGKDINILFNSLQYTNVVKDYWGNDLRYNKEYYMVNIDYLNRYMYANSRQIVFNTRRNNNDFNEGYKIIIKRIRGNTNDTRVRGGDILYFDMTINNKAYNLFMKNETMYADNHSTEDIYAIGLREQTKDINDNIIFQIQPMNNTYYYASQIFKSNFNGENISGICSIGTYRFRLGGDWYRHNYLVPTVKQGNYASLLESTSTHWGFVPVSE


What was measured:
[1] = target: Botulinum neurotoxin mosaic BoNT/DC (Clostridium botulinum); assay: KinExA, IgG
[2] = target: T1, Botulinum neurotoxin serotype C (BoNT/C); assay: KinExA, IgG
[3] = target: Botulinum neurotoxin mosaic BoNT/DC (Clostridium botulinum); assay: range-finding KinExA, IgG
[4] = target: T1, Botulinum neurotoxin serotype C (BoNT/C); assay: range-finding KinExA, IgG

Binder	Kd [1] [nM]	Kd [2] [nM]	Kd [3] [nM]	Kd [4] [nM]
4C10.5 IgG (antibody, V domains shown) VH: QVQLVQSGGGVVQPGRSLRLSCGASRFTFSGFDMHWVRQAPGKGLEWVARISHDGSMADYADSLRGRFTISRDNSKNTLYLQMNSLRVEDTALYYCAKDRWRSGSYPAFEIWGQGTMVTVSS VL: EIVLTQSPSFLSAFVGDRITITCRASQGISNRLAWYQQKPGKAPNLLIHPASTLQSGVPSRFSGSGSGTDFTLTISSLQPEDFATYYCQQANSFPLTFGGGTKVEIKR	0.987	0.0651	0.987	0.0651
4C10.8 IgG (antibody, V domains shown) VH: QVQLVQSGGGVVQPGRSLRLSCGASRFTFSGFDMHWVRQAPGKGLEWVARISHDGSMADYADSLRGRFTISRDNSKNTLYLQMNSLRVEDTALYYCAKDPWRSGSYPAFEIWGQGTMVTVSS VL: EIVLTQSPSFLSAFIGDRITITCRASQGISNRLAWYQQKPGKAPNLLIYPASTLQSGVPSRFSGSGSGTDFTLTISSLQPEDFATYYCQQANSFPLTFGGGTKVEIKR	0.0564	0.0035	0.0564	0.0035
4C10.18 IgG (antibody, V domains shown) VH: QVQLVQSGGGVAQPGRSLRLSCGASRFTFSGFDMHWVRQAPGKGLEWVARISHDGSMADYADSLRGRFTISRDNSKNTLYLQMNSLRVEDTALYYCAKDRWRSGSYPAFEIWGQGTMVTVSS VL: EIVLTQSPSFLSAFVGDRITITCRASQGIGNRLAWYQQKPGKAPNLLIHPASTLQSGVPSRFSGSGSGTDFTLTISSLQPEDFATYYCQQAHRFPLTFGGGTKVEIKR	0.109	0.0108	0.109	0.0108
4C10.22 IgG (antibody, V domains shown) VH: QVQLVQSGGGVVQPGRSLRLSCGASGFKFSGFDMHWVRQAPGKGLEWVARISHDGSMADYADSLRGRFTISRDNSKNTLYLQMNSLRVEDTALYYCAKDPWRSGSYPAFEIWGQGTMVTVSS VL: EIVLTQSPSFLSAFIGDRITITCRASQGISNRLAWYQQKPGKAPNLLIYPASTLQSGVPSRFSGSGSGTDFTLTISSLQPEDFATYYCQQANSFPLTFGGGTKVEIKR	0.0604	0.00192	0.0604	0.00192
4C10.20 IgG (antibody, V domains shown) VH: QVQLVQSGGGVVQPGRSLRLSCGASRFTFSGFDMHWVRQAPGKGLEWVARISHDGSMADYADSLRGRFTISRDNSKNTLYLQMNSLRVEDTALYYCAKDPWRSGSYPAFEIWGQGTMVTVSS VL: EIVLTQSPSFLSAFIGDRITITCRASQGIGNRLAWYQQKPGKAPNLLIYPASTLQSGVPSRFSGSGSGTDFTLTISSLQPEDFATYYCQQANSFPLTFGGGTKVEIKR	0.0166	0.00102	0.0166	0.00102
4C10.15 IgG (antibody, V domains shown) VH: QVQLVQSGGGVVQPGRSLRLSCGASRFTFSGFDMHWVRQAPGKGLEWVARISHDGSMADYADSLRGRFTISRDNSKNTLYLQMNSLRVEDTALYYCAKDRWRSGSYPAFEIWGQGTMVTVSS VL: EIVLTQSPSFLSAFVGDRITITCRASKGIGNRLAWYQQKPGKAPNLLIHPASTLQSGVPSRFSGSGSGTDFTLTISSLQPEDFATYYCQQANSFPLTFGGGTKVEIKR	0.112	0.0122	0.112	0.0122
4C10.23 IgG (antibody, V domains shown) VH: QVQLVQSGGGVVQPGRSLRLSCGASGFKFSGFDMHWVRQAPGKGLEWVARISHDGSMADYADSLRGRFTISRDNSKNTLYLQMNSLRVEDTALYYCAKDRWRSGSYPAFEIWGQGTMVTVSS VL: EIVLTQSPSFLSAFVGDRITITCRASKGIGNRLAWYQQKPGKAPNLLIHPASTLQSGVPSRFSGSGSGTDFTLTISSLQPEDFATYYCQQANSFPLTFGGGTKVEIKR	0.0904	0.00665	0.0904	0.00665
4C10.17 IgG (antibody, V domains shown) VH: QVQLVQSGGGVVQPGRSLRLSCGASRFTFSGFDMHWVRQAPGKGLEWVARISHDGSMADYADSLRGRFTISRDNSKNTLYLQMNSLRVEDTALYYCAKDRWRSGSYPAFEIWGQGTMVTVSS VL: EIVLTQSPSFLSAFVGDRITITCRASQGISNRLAWYQQKPGKAPNLLIHPASSLQSGVPSRFSGSGSGTDFTLTISSLQPEDFATYYCQQANSFPLTFGGGTKVEIKR	0.766	0.0325	0.766	0.0325
